# Data reported in paper PMC7866087, “Evaluation of Computationally Designed Peptides against TWEAK, a Cytokine of the Tumour Necrosis Factor Ligand Family” (International Journal of Molecular Sciences, 2021).
# Legend:
# Assay type in all cases: cell-based, human
# [1] = tested on: 435-Br1 cells, TNFR2F12A gene expression; experiment: Fn14 gene expression with TWEAK, 435-Br1 (RT-PCR); conditions: for Normalized level of expression of Fn14 gene: 435-Br1, TWEAK 25 ng/ml
# Procedure: (§1) Figure 1 Characterization TWEAK-dependent/not dependent cells. (A) Representative images of Fn14 expression (pink) in BRV5, 435-P and HT29 cells labelled by immunofluorescence. The protein has similar expression in BRV5 and the positive control HT29 cells, and less expressed in 435-P. DAPI (blue) was used for nucleus identification. (B) RT-PCR analysis to quantify Fn14 gene expression of cells cultured in the presence (dark green) or absence (light green) of TWEAK (25 ng/mL) at 48 h. Up-regulation of Fn14 is observed only in HT29 and BRV5 cells. Bars and error bars represent the average and standard deviation as calculated from three replicates respectively. P values represented as: * - significant (Pvalue: 0.01 to 0.05) and **- very-significant (Pvalue: 0.001 to 0.01).
# (§2) Since the transcriptional activation of Fn14 expression can be induced in cancer cells by the TWEAK-Fn14 interaction, either in a paracrine or autocrine manner, we investigated whether TWEAK transactivates Fn14 (TNFR2F12A) in BRV5 brain metastatic cells. We primed cells with TWEAK and analysed TNFR2F12A gene expression including in the analysis 435-Br1 cells, the first generation of brain metastatic cells BRV5.
# (§3) Three different cell lines were used in this study: BRV5, MDA-MB 435 (435-P), and HT29. The BRV5 is a highly metastatic brain cell line, obtained in one of our laboratories by primary culture from a brain of a nude mouse inoculated with human 435-Br1 brain metastatic cells, as previously described and used as a model to test the peptides in cell cultures. […] The triple negative 435-P cell line is a useful human breast cancer model that expresses both epithelial and melanocytic markers, and was included as the parental cell from which 435-Br1 metastatic variant was initially originated (both cell lines kindly provided by Dr Fabra at IDIBELL Institute, Hospitalet de Llobregat, Spain). Finally, HT29 human colon carcinoma cells obtained from the European Type Culture Collection (ECACC 91072201) were used as a positive control of TWEAK dependent Fn14 over-expressing cells to evaluate TWEAK-Fn14 axis of brain metastatic variants.
# [2] = tested on: 435-P cells, TNFR2F12A gene expression; experiment: Fn14 gene expression with TWEAK, 435-P (RT-PCR); conditions: for Normalized level of expression of Fn14 gene: TWEAK 25 ng/ml
# Procedure: as §1, §2, §3
# [3] = tested on: HT29 cells, NIK expression; experiment: Time-course RT-PCR of NIK (MAP4K4), HT29; conditions: TWEAK, 6 to 24 h
# [4] = tested on: HT29 cells, Fn14 gene expression; experiment: Fn14 gene expression with TWEAK, HT29 (RT-PCR); conditions: HT29, TWEAK 25 ng/ml
# Procedure: as §1, §2
# as §3, with “Finally, HT29 human colon carcinoma cells obtained from the European Type Culture Collection (ECACC 91072201) were used as a positive control of TWEAK dependent Fn14 over-expressing cells to evaluate TWEAK-Fn14 axis of brain metastatic variants.” left out
# [5] = tested on: BRV5 cells, NIK expression; experiment: Time-course RT-PCR of NIK (MAP4K4), BRV5; conditions: TWEAK, 6 to 24 h
# From the text: The final aspect to consider in the characterization of BRV5 cells prior to the screening of peptides was to assess when the signalling pathway mediated by TWEAK-Fn14 will be at its peak of activity. To that end, we monitored the level of expression of the primary kinase NIK (MAP4K4) at different time points. It has been reported that transcriptional activation of Fn14 would be operated mainly by the NF-κB non-canonical pathway, through inducing the primary kinase NIK (MAP4K4) that phosphorylates IKKα [26]. Thus, we assessed the level of expression of NIK from 6 to 24 h after cells were treated with TWEAK in a time-course RT-PCR (Figure 2). […] From these experiments we concluded that TWEAK-Fn14 pathway is mainly activated at 6 h after treating cells, and thus we designed out experiments to check the inhibitory ability of the peptides at this specific time point.
# Figure 2 NIK activation in brain metastatic cells. Metastatic cells were primed with TWEAK in a time-course RT-PCR experiment. […] Bars and error bars represent the average and standard deviation as calculated from three replicates respectively.
molecule,measurement,setting,value
"tumour necrosis factor-like weak inducer of apoptosis (protein, UniProt O43508 94-249, looked up) Tumor necrosis factor ligand …: SAPKGRKTRARRAIAAHYEVHPRPGQDGAQAGVDGTVSGWEEARINSSSPLRYNRQIGEFIVTRAGLYYLYCQVHFDEGKAVYLKLDLLVDGVLALRCLEEFSATAASSLGPQLRLCQVSGLLALRPGSSLRIRTLPWAHLKAAPFLTYFGLFQVH",Normalized level of expression of Fn14 gene,[1]; technical replicate 1,0.1600
same,Normalized level of expression of Fn14 gene,[1]; technical replicate 2,0.1676
same,Normalized level of expression of Fn14 gene,[1]; technical replicate 3,0.1719
same,TNFR2F12A gene expression,"[1]; TWEAK 25 ng/mL, 48 h, 435-Br1",no differences were found
same,TNFR2F12A gene expression,"[2]; TWEAK 25 ng/mL, 48 h",decreased TNFR2F12A gene expression in 435-P cells with regard to controls (p = 0.0246)
same,Normalized level of expression of Fn14 gene,[2]; technical replicate 1,0.1395
same,Normalized level of expression of Fn14 gene,[2]; technical replicate 2,0.1292
same,Normalized level of expression of Fn14 gene,[2]; technical replicate 3,0.1408
same,NIK expression,[3],"highest NIK expression, occurred 6 h after"
same,Normalized level of expression of Fn14 gene,[4]; technical replicate 1,0.1964
same,Normalized level of expression of Fn14 gene,[4]; technical replicate 2,0.2154
same,Normalized level of expression of Fn14 gene,[4]; technical replicate 3,0.2052
same,NIK expression,[5],"increased in TWEAK stimulated BRV5 cells after 6 h of treatment, decreasing at 12 h and partially recovered at 24 h"
